Test results reported in patent US20250042969A1, “ANTIGEN DISCOVERY FOR T CELL RECEPTORS ISOLATED FROM PATIENT TUMORS RECOGNIZING WILD-TYPE ANTIGENS AND POTENT PEPTIDE MIMOTOPES” (The Board of Trustees of the Leland Stanford Junior …, priority 2017, published 2025).

Experiments:
[1] = tested on: peptide-HLA-A*02:01 yeast-display library; assay: Selection of the peptide-HLA-A*02:01 yeast-display library by multimerized TCR with deep sequencing; assay type: binding, human; details: for cross-reactivity (breadth of tolerated amino acids per peptide position): round 3, accounting for peptide enrichment
MMDFFNAQM-HLA-A*02:01 = target: T1, MMDFFNAQM-HLA-A*02:01 (Homo sapiens, UniProt P04439+P26368, D140Y/D185E/D98H/E176V/E277Q/G131W/G231S/I119V/I121R/I166T/I218V/N151K/N90K/P208A/P217A/Q86G/Q94H/R138H/R169H); assay: Surface plasmon resonance of TCR binding to immobilized […]-HLA-A*02:01; details: BIAcore T100, 25° C., equilibrium data, 1:1 binding model
T1 construct: HLA-A*02:01 (1-275); BirA biotinylation site (implied by BirA biotinylation); made in house
Protocol: Inclusion bodies containing the separate proteins were dissolved in 8 M urea, 40 mM Tris-HCl pH 8.0, 10 mM EDTA, and 10 mM DTT. […] After 72 hours at 4° C., the protein was dialyzed in 10 L of 10 mM Tris-HCl and purified via weak ion exchange using a DEAE cellulose column. The protein elution was purified using size exclusion chromatography on a Superdex 200 column and ion-exchange chromatography on a 5/50 Mono Q column (GE Healthcare). Protein was biotinylated overnight with birA ligase, 100 μM biotin, 40 mM Bicine pH 8.3, 10 mM ATP, and 10 mM Magnesium Acetate at 4° C. after buffer-exchange to 1×HBS pH 7.2 in a 30 kDa filter (Millipore) before being run on a size exclusion Superdex 200 column.
A different flow cell was immobilized with non-relevant peptide-HLA-A2 to serve as blank control. […] Injections of TCR were stopped after 60 s to allow sufficient time for SPR signals to reach plateau. The dissociation constant (KD) was obtained by fitting equilibrium data with a 1:1 binding model using BIAcore evaluation software.

| Molecule | enrichment of peptides / HLA-linked epitope tag from the library ([1]; HLA-A*02:01 library) | cross-reactivity (breadth of tolerated amino acids per peptide position) [1] | affinity (dissociation constant, KD) (MMDFFNAQM-HLA-A*02:01) | TCR tetramer staining of selected library yeast ([1]; 400 nM TCR tetramer, over rounds of selection) | unique peptides selected at round 3 ([1]; HLA-A*02:01 library, all four peptide lengths, deep sequencing) |
| --- | --- | --- | --- | --- | --- |
| TCR 2A: TIL TCR of Patient A, TRAV19/TRBV10-1; alpha chain SEQ ID NO: 258, beta chain SEQ ID NO: 259 (protein) alpha: QKVTQAQTEISVVEKEDVTLDCVYETRDTTYYLFWYKQPPSGELVFLIRRNSFDEQNEISGRYSWNFQKSTSSFNFTITASQVVDSAVYFCALSEARGGATNKLIFGTGTLLAVQPNIQNPDPAVYQLRDSKSSDKSVCLFTDFDSQTNVSQSKDSDVYITDKCVLDMRSMDFKSNSAVAWSNKSDFACANAFNNSIIPEDTFFPSPESS beta: EITQSPRHKITETGRQVTLACHQTWNHNNMFWYRQDLGHGLRLIHYSYGVQDTNKGEVSDGYSVSRSNTEDLPLTLESAASSQTSVYFCASSRDTVNTEAFFGQGTRLTVVEDLKNVFPPEVAVFEPSEAEISHTQKATLVCLATGFYPDHVELSWWVNGKEVHSGVCTDPQPLKEQPALNDSRYALSSRLRVSATFWQNPRNHFRCQVQFYGLSENDEWTQDRAKPVTQIVSAEAWGRAD | enriched peptides from the library | more cross-reactive | – | – | – |
| TCR 3B: TIL TCR of Patient B, TRAV19/TRBV10-1; alpha chain SEQ ID NO: 258, beta chain SEQ ID NO: 260 (protein) alpha: QKVTQAQTEISVVEKEDVTLDCVYETRDTTYYLFWYKQPPSGELVFLIRRNSFDEQNEISGRYSWNFQKSTSSFNFTITASQVVDSAVYFCALSEARGGATNKLIFGTGTLLAVQPNIQNPDPAVYQLRDSKSSDKSVCLFTDFDSQTNVSQSKDSDVYITDKCVLDMRSMDFKSNSAVAWSNKSDFACANAFNNSIIPEDTFFPSPESS beta: EITQSPRHKITETGRQVTLACHQTWNHNNMFWYRQDLGHGLRLIHYSYGVQDTNKGEVSDGYSVSRSNTEDLPLTLESAASSQTSVYFCASSRDFVSNEQYFGPGTRLTVTEDLKNVFPPEVAVFEPSEAEISHTQKATLVCLATGFYPDHVELSWWVNGKEVHSGVCTDPQPLKEQPALNDSRYALSSRLRVSATFWQNPRNHFRCQVQFYGLSENDEWTQDRAKPVTQIVSAEAWGRAD | enriched peptides from the library | relatively specific | could not be determined | tetramer stained yeast gradually increased across the rounds of selection | 66 |
